Measured values: publication PMC7401919
Like-named read-outs stand apart in the source and are kept apart here.

Experiments:
[1] = target: lysyl oxidase (rat (endogenous in RRECs)) (UniProt P16636); test: co-IP
[2] = target: lysyl oxidase (rat (endogenous in RRECs)) (UniProt P16636); test: co-IP; remark: listed apart in the source

Chain of UniProt P16636 (P16636 22-411): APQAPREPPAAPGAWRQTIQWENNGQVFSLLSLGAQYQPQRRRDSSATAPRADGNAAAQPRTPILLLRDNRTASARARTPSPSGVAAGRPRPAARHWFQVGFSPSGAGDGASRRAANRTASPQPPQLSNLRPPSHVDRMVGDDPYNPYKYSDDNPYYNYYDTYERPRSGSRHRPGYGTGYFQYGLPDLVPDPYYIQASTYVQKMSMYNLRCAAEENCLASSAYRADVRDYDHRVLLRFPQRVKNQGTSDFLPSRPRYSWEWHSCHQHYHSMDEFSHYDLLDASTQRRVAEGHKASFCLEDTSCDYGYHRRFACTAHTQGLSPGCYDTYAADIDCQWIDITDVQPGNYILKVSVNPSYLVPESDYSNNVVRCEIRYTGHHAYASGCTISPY

fibronectin (from UniProt P04937 25-2477) (natural protein)
LOX bound to FN in HG medium, % of normal-glucose control [1]: 156 % of control | LOX bound to FN in HG medium, % of normal-glucose control [2]: 168 % of control

collagen IV (natural protein)
LOX bound to Coll IV in HG medium, % of normal-glucose control [1]: 138 % of control | LOX bound to Coll IV in HG medium, % of normal-glucose control [2]: 144 % of control
